The source of these data is US20250388666A1 (BRIGHAM AND WOMEN S HOSPITAL, published 2025).

The target in test [1] is T1, CEACAM1 (Sino Biological) (human, UniProt P13688 35-428, limits assumed).
T1 construct: may be the same as CEACAM1-HIS; also called hCEACAM1; biotinylated soluble CEACAM1
T1 sequence: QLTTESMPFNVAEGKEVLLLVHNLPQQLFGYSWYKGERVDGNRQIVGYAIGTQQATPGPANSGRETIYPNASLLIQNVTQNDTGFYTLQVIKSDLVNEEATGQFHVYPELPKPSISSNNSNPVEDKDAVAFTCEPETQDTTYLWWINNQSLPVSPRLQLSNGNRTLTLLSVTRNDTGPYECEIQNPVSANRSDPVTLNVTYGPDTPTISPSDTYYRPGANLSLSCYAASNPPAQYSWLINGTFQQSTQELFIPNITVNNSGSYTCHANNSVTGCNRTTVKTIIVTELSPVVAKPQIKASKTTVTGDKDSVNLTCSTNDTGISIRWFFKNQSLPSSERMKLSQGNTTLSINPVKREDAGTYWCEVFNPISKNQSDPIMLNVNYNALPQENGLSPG
The test is described as follows: single-point competition ELISA: crude periplasmic scFv extract mixed 1:1 with VH2 N56Q/Vk4 S27(f)A IgG (0.246 µg/mL) on plate-coated CEACAM1 (0.0625 µg/mL); remaining IgG detected with anti-human-HRP, absorbance 450 nm. Here is the method:
Nunc Immuno MaxiSorp 96 well flat bottom microtitre plates were coated with CEACAM1 at 0.0625 μg/ml overnight. Plates were subsequently washed and blocked for 1 hour at room temperature with 3% BSA/PBS. Periplasmic extracts were diluted 1:1 with VH2 N56Q/Vk4 S27(f)A IgG (parental RSB02 IgG) at 0.246 μg/mL in 6% BSA/PBS. The diluted periplasmic extract was then added to the blocked plate (100 μL per well) and the samples incubated on the plate for 1 hour at room temperature. Plates were subsequently washed and the binding of VH2 N56Q/Vk4 S27(f)A IgG was detected with an anti-human-HRP antibody (Sigma, Gillingham, UK) and TMB substrate (Invitrogen). The reaction was stopped with 1 M HCl, absorbance read at 450 nm on a Dynex Technologies MRX TC II plate reader and the binding data plotted.
Improved clones were identified on the basis of activity in the competition ELISA relative to the parental RSB02 scFv assayed on the same plate. Greater than 7300 peripreps were analyzed in total from all three libraries. Positive hits were picked into ‘cherry’ plates, re-tested within the competition ELISA to confirm results and sequenced. Dominant single sequence clones were identified in both the VH B1 (˜41% of clones sequenced after round 3 were a single dominant clone) and VL libraries (˜20% of clones were single dominant clones from those sequenced from round 3 and 4).

The target in test [2] is T2, CEACAM6 on transfected HeLa cells (UniProt P40199 35-320, limits assumed).
T2 construct: whole, on cells; also called C6
T2 sequence (looked up): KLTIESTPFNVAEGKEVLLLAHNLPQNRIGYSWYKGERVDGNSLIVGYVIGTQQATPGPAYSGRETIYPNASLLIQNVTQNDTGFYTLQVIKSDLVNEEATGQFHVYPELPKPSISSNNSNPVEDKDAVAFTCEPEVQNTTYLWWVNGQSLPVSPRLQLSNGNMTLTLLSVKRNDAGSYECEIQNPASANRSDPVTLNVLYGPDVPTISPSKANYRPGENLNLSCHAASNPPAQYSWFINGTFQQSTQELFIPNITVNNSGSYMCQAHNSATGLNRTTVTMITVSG
The test is described as follows: flow cytometry, transfected HeLa. As for the experimental part: (§1) Binding selectivity of the selected antibody variants was assessed by flow cytometry using HeLa cells transfected with vectors expressing CEACAM1, CEACAM5, and CEACAM6, respectively. The resulting cells were used for flow cytometry experiments and were cultured at 37° C., 5.0% CO₂ in Dulbecco's modified Eagle's medium supplemented with 10% fetal bovine serum, penicillin (100 U/ml) and dihydrostreptomycin ([…]). Cell lines were stained with the indicated antibodies followed by fluorochrome-conjugated monoclonal antibody specific for the indicated antibody isotypes such as human IgG4 or mouse IgG1 together with viable dye (DAPI). Data were acquired with a Cytoflex flow cytometer ([…]) and analyzed with FlowJo software (TreeStar, V7.6.5 for Windows).
(In general: Flow cytometry measures light scatter and fluorescence of single cells or particles in a stream.)

Test [3] has as its target T3, CEACAM1 on transfected HeLa cells (Homo sapiens (Human), UniProt P13688 35-526).
T3 construct: also called C1
T3 sequence: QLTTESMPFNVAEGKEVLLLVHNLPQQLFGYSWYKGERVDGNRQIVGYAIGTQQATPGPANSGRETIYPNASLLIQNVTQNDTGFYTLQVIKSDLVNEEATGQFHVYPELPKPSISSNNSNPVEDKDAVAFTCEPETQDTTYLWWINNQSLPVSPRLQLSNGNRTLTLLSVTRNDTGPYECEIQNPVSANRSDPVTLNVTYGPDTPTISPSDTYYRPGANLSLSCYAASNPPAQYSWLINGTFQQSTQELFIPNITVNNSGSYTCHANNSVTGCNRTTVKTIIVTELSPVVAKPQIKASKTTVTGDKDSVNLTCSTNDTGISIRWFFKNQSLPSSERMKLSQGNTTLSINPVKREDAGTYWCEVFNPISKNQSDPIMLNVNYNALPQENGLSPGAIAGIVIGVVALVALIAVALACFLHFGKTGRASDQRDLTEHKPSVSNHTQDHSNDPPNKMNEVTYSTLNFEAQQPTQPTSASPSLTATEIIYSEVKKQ
The test can be described thus: flow cytometry, transfected HeLa. Here is the method: as §1

Test [4] has as its target T4, CEACAM1-HIS (Sino Biologics Inc.) (Homo sapiens (Human), UniProt P13688 35-428).
T4 construct: bought; not shown: His tag
T4 sequence: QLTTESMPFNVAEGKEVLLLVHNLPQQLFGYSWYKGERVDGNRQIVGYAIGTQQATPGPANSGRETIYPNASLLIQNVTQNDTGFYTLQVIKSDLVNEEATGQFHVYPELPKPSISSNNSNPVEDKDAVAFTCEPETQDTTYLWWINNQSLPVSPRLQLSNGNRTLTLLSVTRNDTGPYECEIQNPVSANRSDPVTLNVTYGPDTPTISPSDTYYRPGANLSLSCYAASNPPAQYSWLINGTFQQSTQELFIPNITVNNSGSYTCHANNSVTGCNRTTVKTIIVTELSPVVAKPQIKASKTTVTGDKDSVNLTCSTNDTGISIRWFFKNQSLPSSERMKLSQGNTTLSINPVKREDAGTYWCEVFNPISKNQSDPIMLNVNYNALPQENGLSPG
The test is described as follows: SPR single-cycle, IgG on Protein A. As for the experimental part: As an alternative approach to assess the binding of the antibody combinations and the control antibodies to CEACAM1, a kinetic analysis was performed on a Biacore T200 running Biacore T200 Evaluation Software V2.0.1. All experiments were run at 25° C. with HBS-P+ running buffer (pH 7.4).
In order to assess the binding of all Composite Human Antibody™ variants, single cycle kinetic analysis was performed on the supernatants of all the transiently transfected HEK EBNA cells. Purified chimeric antibody and purified chimeric antibody spiked into HEK EBNA media were used as positive controls. Supernatants were diluted in HBS-P+ to a concentration of 1 μg/mL (as determined by an IgG quantitation ELISA). At the start of each cycle, antibodies were loaded onto Fc2, Fc3 and Fc4 of a Protein A chip and captured at a flow rate of 8 μL/min to give an RU of ˜100. The surface was then allowed to stabilize. Single cycle kinetic data was obtained at a flow rate of […] to minimize any potential mass transfer effects. Multiple repeats of the chimeric antibody were performed to check the stability of the surface and analyte over the kinetic cycles. The signal from the reference channel Fc1 (no antibody) was subtracted from that of Fc2, Fc3 and Fc4 to correct for differences in non-specific binding to a reference surface. A 5 point 2-fold dilution range from 3.125 to 50 nM CEACAM1 without regeneration between each concentration was used. The association phase for the 5 injections of increasing concentrations of CEACAM1 was monitored for 150 seconds and a single dissociation phase was measured for 150 seconds following the last injection of CEACAM1. Regeneration of the Protein A was conducted using 2 injections of 10 mM glycine-HCL pH 1.5 followed by a stabilization period of 500 seconds.
In the raw sensorgrams for the single cycle kinetics, the signal from each antibody blank run (no CEACAM1) was subtracted to correct for differences in surface stability.

In test [5] the target is T5, human GST-CEACAM1 (human, UniProt P13688 35-141, limits assumed).
T5 construct: printed both as GST-CEACAM1 and CEACAM1-GST; also called human CEACAM1-GST protein; hCEACAM1-GST; not shown: GST tag
T5 sequence: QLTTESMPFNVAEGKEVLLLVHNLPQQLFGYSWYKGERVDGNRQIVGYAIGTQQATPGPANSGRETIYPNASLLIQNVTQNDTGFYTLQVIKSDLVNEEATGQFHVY
The test can be described thus: competition ELISA vs murine parent antibody. Here is the method:
The binding of the purified chimeric antibody to human CEACAM1 was assessed in a competition ELISA assay. Nunc Immuno MaxiSorp 96 well flat bottom microtitre plates were pre-coated with 1 μg/ml human GST-CEACAM1 in 1×PBS, overnight at 4° C. The following day the plates were blocked for 1 hour at room temperature with 2% BSA/PBS before washing 2× with PBS/0.05% Tween 20 pH 7.4.
The binding of the purified antibodies to human CEACAM1 were assessed in a competition ELISA assay as described above. The ability of each variant to compete against the murine parental antibody for binding to the GST-CEACAM1 was compared to that of the chimeric antibody (VH0/Vκ0), which was included on each plate.
A general note: In an ELISA, binding on a coated surface is turned into a signal by an enzyme label.

As usually defined, the Kd is the free concentration of one partner at which half of the binding sites on the other are occupied at equilibrium, for simple one-to-one binding.

B1: Parent (scFv)
scFv: EVQLLESGGGLVQPGGSLRLSCAASGFSFSDYYLYWVRQAPGKGLEWVATISVGGGQTSYADSVKGRFTISRDNSKNTLYLQMNSLRAEDTAMYYCTRGLYYGPAWFAYWGQGTLVTVSSGGGGSGGGGSGGGGSDIVMTQSPDSLAVSLGERATINCKSSQSLLNSANQKNYLAWYQQKPGQPPKLLIYFASTRESGVPDRFSGSGSGTDFTLTISSLQAEDVAVYYCQQHYSTPWTFGGGTKVEIK
notes: also called parent humanized scFv; parental RSB02 scFv; not shown: C-terminal Flag tag from phagemid pANT65
For the molecule B1, the binding result in test [1] is on record as “binds”.

B2: VH1/Vκ4 (antibody, IgG4, V domains shown)
VH: EVQLLESGGGLVQPGGSLRLSCAASGFSFSDYYLYWVRQAPGKGLEWVATISVGGGNTSYPDSVKGRFTISRDNSKNTLYLQMNSLRAEDTAMYYCTRGLYYGPAWFAYWGQGTLVTVSS
VL: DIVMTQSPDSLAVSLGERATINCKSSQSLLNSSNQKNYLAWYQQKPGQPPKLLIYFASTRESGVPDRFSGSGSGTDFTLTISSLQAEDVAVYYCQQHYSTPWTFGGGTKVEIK
notes: IgG4 (S241P), kappa; also called VH1/VK4
B2 yielded a relative fluorescence intensity in test [2] of 1.19. In test [3], this molecule displayed a relative fluorescence intensity of 81.1. In test [4], the dissociation constant Kd turned out to be 143 nM and the “relative KD to chimeric parental antibody” value was determined as 3.3 ratio. For the same molecule, the “average relative IC50 (normalized to chimeric antibody)” value in test [5] worked out at 4.4 ratio.
